Reference: patent US20230322888A1

What was measured:
Experiment in all cases: cell-based or functional assay
[1] = molecular target: mouse GLP1 receptor (mouse) (UniProt O35659)
[2] = molecular target: cynomolgus monkey GLP1 receptor (cynomolgus monkey) (UniProt F8V479)
[3] = molecular target: human GLP1 receptor (human) (UniProt P43220)
Chain of human GLP1 receptor (human) (P43220 24-463): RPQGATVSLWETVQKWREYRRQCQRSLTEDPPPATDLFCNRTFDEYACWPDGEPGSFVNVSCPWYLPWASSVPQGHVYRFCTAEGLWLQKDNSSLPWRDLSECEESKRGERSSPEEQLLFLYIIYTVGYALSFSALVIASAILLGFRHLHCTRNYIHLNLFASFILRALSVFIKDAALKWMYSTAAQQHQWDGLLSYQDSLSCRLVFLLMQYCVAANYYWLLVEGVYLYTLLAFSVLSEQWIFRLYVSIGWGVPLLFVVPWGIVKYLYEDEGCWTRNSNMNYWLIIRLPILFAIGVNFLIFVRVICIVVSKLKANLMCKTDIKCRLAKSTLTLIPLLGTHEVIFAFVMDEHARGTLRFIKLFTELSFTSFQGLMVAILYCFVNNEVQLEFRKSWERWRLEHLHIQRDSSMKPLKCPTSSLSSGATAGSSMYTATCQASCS

Chain of cynomolgus monkey GLP1 receptor (cynomolgus monkey) (F8V479 entry or part of it): as the sequence (P43220 24-463) above, with S112N, F120S, S202G, L205V, L237F, W241R, I249V counted along it
Chain of Dulaglutide (Fc fusion) (chain): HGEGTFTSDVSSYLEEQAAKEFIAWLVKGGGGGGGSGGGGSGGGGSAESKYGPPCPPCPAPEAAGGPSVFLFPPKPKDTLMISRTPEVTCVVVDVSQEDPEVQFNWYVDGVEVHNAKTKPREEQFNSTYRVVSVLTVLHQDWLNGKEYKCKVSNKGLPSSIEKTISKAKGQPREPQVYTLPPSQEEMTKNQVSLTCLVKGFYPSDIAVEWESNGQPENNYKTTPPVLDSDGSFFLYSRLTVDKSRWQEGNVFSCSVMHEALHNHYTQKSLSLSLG
Chain of Albiglutide (chain): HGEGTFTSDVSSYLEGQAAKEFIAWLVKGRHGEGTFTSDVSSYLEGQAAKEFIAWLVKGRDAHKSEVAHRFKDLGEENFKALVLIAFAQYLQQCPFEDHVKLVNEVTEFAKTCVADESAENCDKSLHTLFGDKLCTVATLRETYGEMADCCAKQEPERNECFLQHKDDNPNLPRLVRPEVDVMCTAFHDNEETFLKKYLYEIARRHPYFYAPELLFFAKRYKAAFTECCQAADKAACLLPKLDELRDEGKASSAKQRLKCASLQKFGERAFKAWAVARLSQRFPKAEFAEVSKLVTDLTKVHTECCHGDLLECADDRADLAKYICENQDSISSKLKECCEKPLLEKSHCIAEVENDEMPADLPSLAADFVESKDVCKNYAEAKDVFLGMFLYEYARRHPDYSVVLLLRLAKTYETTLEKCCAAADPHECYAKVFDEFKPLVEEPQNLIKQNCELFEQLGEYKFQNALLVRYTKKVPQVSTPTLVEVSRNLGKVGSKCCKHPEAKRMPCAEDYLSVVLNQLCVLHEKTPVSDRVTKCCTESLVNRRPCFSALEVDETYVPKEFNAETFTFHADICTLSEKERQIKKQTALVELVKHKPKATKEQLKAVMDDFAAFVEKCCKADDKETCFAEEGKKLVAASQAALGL
Chain of mouse GLP1 receptor (mouse) (O35659 22-463): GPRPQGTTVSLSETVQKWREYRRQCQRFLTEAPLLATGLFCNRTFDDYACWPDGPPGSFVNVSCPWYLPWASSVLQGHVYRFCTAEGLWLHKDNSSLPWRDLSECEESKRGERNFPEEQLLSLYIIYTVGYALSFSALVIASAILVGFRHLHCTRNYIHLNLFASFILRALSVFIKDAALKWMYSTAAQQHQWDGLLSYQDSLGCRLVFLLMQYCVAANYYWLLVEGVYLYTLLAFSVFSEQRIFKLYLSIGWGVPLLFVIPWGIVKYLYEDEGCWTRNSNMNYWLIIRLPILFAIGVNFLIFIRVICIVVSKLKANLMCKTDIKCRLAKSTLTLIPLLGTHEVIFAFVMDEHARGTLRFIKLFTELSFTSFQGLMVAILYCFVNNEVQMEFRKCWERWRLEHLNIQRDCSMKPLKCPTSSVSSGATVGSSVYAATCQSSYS

cAMP induction mGLP1R EC50 [1] [pM] | cAMP induction CGLP1R EC50 [2] [pM] | cAMP induction hGLP1R EC50 [3] [pM] | Substance
52 | 79 | – | Liraglutide (peptide)
20 | 45 | 38 | Dulaglutide (Fc fusion)
12 | – | – | GLP1 (from UniProt P01275 98-127) (peptide)
1490 | 1760 | 981 | Albiglutide
